Biological target: tissue factor (TF) antigen (UniProt P13726)
Test: SPR (ProteOn), Fab captured on anti-penta-His, TF as analyte, 1:1 fit

Chain of tissue factor (TF) antigen (P13726 33-251 limits assumed): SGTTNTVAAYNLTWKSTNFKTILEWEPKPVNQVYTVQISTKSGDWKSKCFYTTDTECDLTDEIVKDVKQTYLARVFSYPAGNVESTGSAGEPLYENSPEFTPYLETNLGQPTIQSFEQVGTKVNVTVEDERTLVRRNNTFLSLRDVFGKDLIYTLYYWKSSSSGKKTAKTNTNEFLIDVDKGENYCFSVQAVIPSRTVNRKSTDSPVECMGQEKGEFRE

Substance | Change in KD with respect to wild type (-(log(KD design) - log(KD wt))) | Kd
D3H44 Fab heterodimer, H Q179R / L Q124E_T178E_T180E | -0.01 | 0.16 nM
D3H44 Fab heterodimer, H L143E_K145T_Q179E_S188L / L Q124R_T178R | -0.34 | 0.34 nM
D3H44 Fab heterodimer, H S186K / L S131E | 0.05 | 0.14 nM
D3H44 Fab heterodimer, H L143R / L Q124E_V133E_S176L | -0.25 | 0.28 nM
D3H44 Fab heterodimer, H Q179K / L Q124E_S131T_T178Y_T180E | -0.01 | 0.16 nM
D3H44 Fab heterodimer, H L143A_Q179K / L Q124E_V133Y_T180E | -0.23 | 0.27 nM
D3H44 Fab heterodimer, H L143E_K145T / L Q124R | -0.25 | 0.28 nM
D3H44 Fab heterodimer, H L143R / L Q124E_V133E | -0.09 | 0.2 nM
D3H44 Fab heterodimer, H L143K / L Q124E_V133D_S176L | -0.25 | 0.28 nM
D3H44 Fab heterodimer, H L143K_D146G / L Q124E_V133D | -0.22 | 0.25 nM
D3H44 Fab heterodimer, H L124A_S186K / L Q124E_V133W_T180E | 0.02 | 0.15 nM
D3H44 Fab heterodimer, H L143E_K145T_S188L / L Q124R_Q160K_T178R | -0.19 | 0.24 nM
D3H44 Fab heterodimer, H Q179R / L Q124E_T178E | 0.04 | 0.14 nM
D3H44 Fab heterodimer, H S186K / L Q124E_S131T_T178F_T180E | -0.03 | 0.17 nM
D3H44 Fab heterodimer, H L143R / L Q124E_V133E_Q160M | -0.21 | 0.25 nM
D3H44 Fab heterodimer, H Q179K / L Q124E_Q160E_T178E | -0.27 | 0.29 nM
D3H44 Fab heterodimer, H Q179R / L Q124E_S176L_T180E | -0.02 | 0.17 nM

Second part, the substance after the results:

Change in KD with respect to wild type (-(log(KD design) - log(KD wt))) | Kd | Substance
0.14 | 0.11 nM | D3H44 Fab heterodimer, H Q179R / L Q124E_S131T_T178F_T180E
0.1 | 0.13 nM | D3H44 Fab heterodimer, H Q179K / L Q124E_T178E_T180E
0.05 | 0.14 nM | D3H44 Fab heterodimer, H Q179K / L S131E
0.07 | 0.13 nM | D3H44 Fab heterodimer, H Q179R / L Q124E_S131T_T178Y_T180E
0.1 | 0.12 nM | D3H44 Fab heterodimer, H L124A_Q179K / L Q124E_V133W_T180E
0.13 | 0.12 nM | D3H44 Fab heterodimer, H Q179K / L Q124E_S131T_T178F_T180E
0.15 | 0.11 nM | D3H44 Fab heterodimer, H L143E_K145T / L Q124R_T178R
0.16 | 0.11 nM | D3H44 Fab heterodimer, H Q179R / L Q124E_Q160E_T178E
0.28 | 0.08 nM | D3H44 Fab heterodimer, H Q179K / L Q124E_S176L_T180E
